The record followed here is paper PMC11951571, “Mechanism of non-coding RNA regulation of DNMT3A”.

The target in series [1] is T1, DNMT3A_FL WT (human, UniProt Q9Y6K1 1-912). Put plainly: fluorescence anisotropy; 1 uM protein in complex with 10 nM FAM-H3K4me0 peptide (1-21); 50 uM sinefungin; no anisotropy change; 50 mM KH2PO4/K2HPO4 pH 7.8, 1 mM EDTA, 1 mM DTT, 0.2 mg/ml BSA, 20 mM NaCl, 50 uM sinefungin (printed 'μm'), room temperature, 5 min. For orientation: Polarisation of emitted light reports the rotation of a fluorescent probe.
T1 sequence (Q9Y6K1 whole entry): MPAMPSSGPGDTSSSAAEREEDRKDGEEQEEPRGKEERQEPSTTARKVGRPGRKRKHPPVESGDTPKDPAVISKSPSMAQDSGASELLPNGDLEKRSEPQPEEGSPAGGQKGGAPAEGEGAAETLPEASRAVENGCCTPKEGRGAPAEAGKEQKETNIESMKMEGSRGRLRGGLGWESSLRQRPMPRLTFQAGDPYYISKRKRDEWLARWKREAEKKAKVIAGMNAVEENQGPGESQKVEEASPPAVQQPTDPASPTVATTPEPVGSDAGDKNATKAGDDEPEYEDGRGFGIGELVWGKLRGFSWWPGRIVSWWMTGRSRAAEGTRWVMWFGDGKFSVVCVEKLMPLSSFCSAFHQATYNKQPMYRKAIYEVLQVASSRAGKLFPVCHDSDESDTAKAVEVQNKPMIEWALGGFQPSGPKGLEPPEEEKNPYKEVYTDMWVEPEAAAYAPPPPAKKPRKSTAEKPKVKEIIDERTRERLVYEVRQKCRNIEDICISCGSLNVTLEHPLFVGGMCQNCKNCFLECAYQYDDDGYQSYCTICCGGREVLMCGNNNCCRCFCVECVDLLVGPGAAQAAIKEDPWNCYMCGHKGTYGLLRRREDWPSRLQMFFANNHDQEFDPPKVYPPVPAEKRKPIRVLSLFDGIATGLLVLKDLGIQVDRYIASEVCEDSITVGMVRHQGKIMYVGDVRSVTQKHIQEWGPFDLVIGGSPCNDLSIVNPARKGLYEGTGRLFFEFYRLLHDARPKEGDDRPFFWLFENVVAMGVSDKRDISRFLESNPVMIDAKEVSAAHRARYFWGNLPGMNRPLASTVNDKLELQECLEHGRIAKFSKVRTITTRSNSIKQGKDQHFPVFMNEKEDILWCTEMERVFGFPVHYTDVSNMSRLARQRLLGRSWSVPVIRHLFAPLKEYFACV

The next series deals with DNMT3A_CD R771A;DNMT3L (human;human, UniProt Q9Y6K1;Q9UJW3 634-912;1-386, R771A|). As to the kind of experiment: fluorescence anisotropy; heterotetramer pre-bound to 10 nM FAM-GCbox30; 50 uM sinefungin; 50 mM KH2PO4/K2HPO4 pH 7.8, 1 mM EDTA, 1 mM DTT, 0.2 mg/ml BSA, 20 mM NaCl, 50 uM sinefungin (printed 'μm'), room temperature, 5 min. The conditions noted are these: protein: recombinant;recombinant; tags: His (pET28a, nickel column);; chain copies: 2;2; 25 nt.
DNMT3A_CD R771A;DNMT3L, sequence (Q9Y6K1 634-912 R771A, chain 1 of 2): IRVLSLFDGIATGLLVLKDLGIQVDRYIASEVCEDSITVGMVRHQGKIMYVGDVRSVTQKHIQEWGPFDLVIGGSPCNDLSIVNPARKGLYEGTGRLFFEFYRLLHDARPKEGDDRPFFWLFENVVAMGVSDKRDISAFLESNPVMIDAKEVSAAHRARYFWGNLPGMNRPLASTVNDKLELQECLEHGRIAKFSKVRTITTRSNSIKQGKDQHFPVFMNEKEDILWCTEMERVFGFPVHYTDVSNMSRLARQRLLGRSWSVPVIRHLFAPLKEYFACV
DNMT3A_CD R771A;DNMT3L, sequence (Q9UJW3 whole entry, chain 2 of 2): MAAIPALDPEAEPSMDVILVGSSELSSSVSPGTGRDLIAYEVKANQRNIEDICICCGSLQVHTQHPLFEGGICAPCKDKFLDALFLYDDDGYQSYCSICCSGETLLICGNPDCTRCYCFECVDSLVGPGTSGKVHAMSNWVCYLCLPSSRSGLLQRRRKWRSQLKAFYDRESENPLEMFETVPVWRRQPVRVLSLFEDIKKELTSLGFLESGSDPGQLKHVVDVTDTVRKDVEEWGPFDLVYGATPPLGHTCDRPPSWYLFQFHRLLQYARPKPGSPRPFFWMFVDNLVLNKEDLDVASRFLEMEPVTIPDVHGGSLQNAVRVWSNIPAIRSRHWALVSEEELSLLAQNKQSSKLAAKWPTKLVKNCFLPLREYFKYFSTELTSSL

For series [2], the target named is T1, DNMT3A_FL WT. Put plainly: fluorescence anisotropy; 1 uM protein in complex with 10 nM FAM-H3K4me0 peptide (1-21); 50 uM sinefungin; 50 mM KH2PO4/K2HPO4 pH 7.8, 1 mM EDTA, 1 mM DTT, 0.2 mg/ml BSA, 20 mM NaCl, 50 uM sinefungin (printed 'μm'), room temperature, 5 min.
In another series the target is DNMT3A_CD WT (human, UniProt Q9Y6K1 634-912). Put plainly: fluorescence anisotropy; 1 uM protein pre-bound to 10 nM FAM-GCbox30; 50 uM sinefungin; anisotropy rises on RNA addition; 50 mM KH2PO4/K2HPO4 pH 7.8, 1 mM EDTA, 1 mM DTT, 0.2 mg/ml BSA, 20 mM NaCl, 50 uM sinefungin (printed 'μm'), room temperature, 5 min. The note with it: protein: recombinant; tags: His (pET28a, nickel column); chain copies: 4; 25 nt.
DNMT3A_CD WT, sequence (Q9Y6K1 634-912): as the sequence (Q9Y6K1 634-912 R771A, chain 1 of 2) above, with A138R counted along it

Another series has as its target DNMT3A_CD R729A (human, UniProt Q9Y6K1 634-912, R729A). Put plainly: fluorescence anisotropy; 1 uM protein pre-bound to 10 nM FAM-GCbox30; 50 uM sinefungin; 50 mM KH2PO4/K2HPO4 pH 7.8, 1 mM EDTA, 1 mM DTT, 0.2 mg/ml BSA, 20 mM NaCl, 50 uM sinefungin (printed 'μm'), room temperature, 5 min. The note with it: protein: recombinant; tags: His (pET28a, nickel column); chain copies: 2; 25 nt.

Another series deals with DNMT3A_CD R736A (human, UniProt Q9Y6K1 634-912, R736A). The series is described as above. The note with it: protein: recombinant; tags: His (pET28a, nickel column); chain copies: 4; 25 nt.
DNMT3A_CD R736A, sequence (Q9Y6K1 634-912 R736A): as the sequence (Q9Y6K1 634-912 R771A, chain 1 of 2) above, with R103A, A138R counted along it

DNMT3A_CD R729A, sequence (Q9Y6K1 634-912 R729A): as the sequence (Q9Y6K1 634-912 R771A, chain 1 of 2) above, with R96A, A138R counted along it

As for CGACCGCCUACUGAAAGAGGGC (ssRNA) [non-specific RNA], the binding result with DNMT3A_FL WT [1] is given as “no binding”.

Take GGGGACACGCCCUCUGUUCCCUUAU (ssRNA) [Fos-1 ecRNA]: the binding result with DNMT3A_CD R771A;DNMT3L, in the series with DNMT3A_FL WT [2], in the series with DNMT3A_CD WT, with DNMT3A_CD R729A and in the series with DNMT3A_CD R736A was “binds” in each case.
